The values that follow come from patent US20140093514A1 (UNIVERSITY OF ZURICH, published 2014).

Where two headings read alike, the source gives them in different places.

Assay [1] concerns the target T1, recombinant MAGEA3 protein (human, UniProt P43357 1-314).
T1 construct: In Experiment 4C MAGEA3 was also expressed in transiently transfected HEK293T cells (fixed and permeabilized); also called His-tagged MAGEA3; CT1.3
The assay is described as follows: ELISA, recombinant MAGEA3 coated to plastic, serial dilutions of antibody, OD 450 nm. The protocol: FIG. 4 EC50 determination of recombinant human monoclonal antibodies to MAGEA3. MAGEA3-ELISA was carried out using recombinant MAGEA3 coated to plastic and serial dilutions of the human monoclonal antibodies 21B4, 54B4, 94G11, 9A5, 31H10, 43B10, 2G4, 20C10, 26C9 and 4D6 (A-J). EC50 values are indicated in each figure.
(§1) The EC₅₀, the concentration at which half-maximal binding of the antibody to its antigen is observed was determined in MAGEA3 ELISA using serial dilutions of the human monoclonal antibodies 21B4, 54B4, 94G11, 9A5, 31H10, 43B10, 2G4, 20C10, 26C9 and 4D6. EC50 values were determined mathematically by derivation of the best-fit line using GraphPad software.

Another assay deals with T2, recombinant MAGEA4 (UniProt P43358 1-317, limits assumed).
T2 construct: also called CT1.4
T2 sequence (looked up): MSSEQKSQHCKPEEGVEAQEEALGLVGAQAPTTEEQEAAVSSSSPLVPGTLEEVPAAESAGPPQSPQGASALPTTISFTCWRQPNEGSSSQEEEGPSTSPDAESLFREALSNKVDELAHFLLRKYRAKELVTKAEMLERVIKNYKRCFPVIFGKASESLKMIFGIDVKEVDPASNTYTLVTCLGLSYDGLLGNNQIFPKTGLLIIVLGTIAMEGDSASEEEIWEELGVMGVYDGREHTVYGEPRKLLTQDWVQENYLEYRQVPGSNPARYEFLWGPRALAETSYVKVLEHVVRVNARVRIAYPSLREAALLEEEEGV
The assay can be described thus: Western blot; recombinant MAGEA4 in lane B, human antibody as probe. On the procedure:
Membranes were incubated with human antibodies 21B4, 54B4, 94G11, 9A5, 31H10, 43B10, 2G4 or 20C10. Binding of human antibodies to proteins on the membrane was evaluated. The results are depicted in FIG. 3A).

The next assay deals with T3, recombinant MAGEA1 (UniProt P43355 1-309, limits assumed).
T3 construct: also called CT1.1
T3 sequence (looked up): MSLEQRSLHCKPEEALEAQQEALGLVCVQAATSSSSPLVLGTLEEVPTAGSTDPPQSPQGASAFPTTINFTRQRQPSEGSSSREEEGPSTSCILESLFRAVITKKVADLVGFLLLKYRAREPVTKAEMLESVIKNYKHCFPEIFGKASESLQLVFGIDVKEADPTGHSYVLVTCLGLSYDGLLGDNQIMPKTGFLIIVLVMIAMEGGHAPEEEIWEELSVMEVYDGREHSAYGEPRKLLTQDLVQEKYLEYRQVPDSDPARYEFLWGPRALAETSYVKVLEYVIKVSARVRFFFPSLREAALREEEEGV
The assay can be described thus: ELISA on coated recombinant MAGEA proteins, serial dilutions of antibody (concentrations not printed on the sheet). The protocol: (§2) Recombinantly expressed MAGEA3, MAGEA1, MAGEA4, MAGEA10 were coated on ELISA plates and binding of MAGEA3 antibodies 21B4, 94G11, 2G4, 9A5 and 54B4 to these proteins was tested. The results are depicted in FIG. 3B).

In another assay the target is T4, recombinant MAGEA10 (UniProt P43363 1-369, limits assumed).
T4 construct: also called CT1.10
The assay is described as above. On the procedure:
as §2

For another assay, the target named is T5, MAGEA3 peptide No 5.
T5 construct: member of the group m18; also called 20mer peptide, amino acids 41-60 of MAGEA3
T5 peptide: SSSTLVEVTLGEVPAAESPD
The assay can be described thus: ELISA on plates coated with overlapping 20mer MAGEA3 peptides; antibody 9A5 at '4 mg/ml' as printed in paragraph 376; HRP goat anti-human IgG Fc-gamma. On the procedure: (§3) 20mer peptides spanning the entire MAGEA3 protein with 10 aa overlaps shared by each adjacent peptide (Peptides&Elephants, Nuthetal, Germany) were used to coat Maxisorp ELISA plates (Nunc, Rochester, N.Y.). As control a 20mer peptide representing amino acids 40-21 from the NY-ESO-1 protein was used (rev). The numbering of amino acids of MAGEA3 is based on SEQ ID No.: 101.
(§4) Human recombinant antibody was used at a concentration of 1 μg/ml with the exception of antibody 9A5 which was used at […]. Bound human antibody was detected using horseradish peroxidase-conjugated goat anti-human IgG Fc-gamma specific antibodies (Jackson ImmunoResearch, Europe Ltd., Cambridgeshire, UK).

Another assay deals with T6, MAGEA6 (UniProt P43360 1-314, limits assumed).
T6 construct: whole, on cells; Intracellular antigen: the transfected cells were fixed and permeabilized before staining; also called CT1.6
The assay is described as follows: flow cytometry on fixed, permeabilized HEK293T cells transiently transfected with MAGEA6; PE-labeled anti-human antibody. On the procedure:
HEK293T cells transiently transfected with MAGEA3 or MAGE A6 were fixed and permeabilized and incubated with human-derived antibodies. Binding of human-derived antibodies to the cells was detected by flow cytometry using PE-labeled anti-human antibodies. […] Filled histograms show binding of 21B4, 31H10, 94G11 and 54B4 to transiently transfected HEK 293 cells. Only a proportion of the cells was transfected resulting in a population expressing the transgene and in a population not expressing the transgene. […] The results are depicted in FIG. 3C).

A further assay has as its target T7, MAGEA3 peptide No 22.
T7 construct: member of the group m18; also called 20mer peptide, amino acids 211-230 of MAGEA3
T7 peptide: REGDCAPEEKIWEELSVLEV
The assay can be described thus: ELISA on plates coated with overlapping 20mer MAGEA3 peptides; antibody at 1 µg/ml; HRP goat anti-human IgG Fc-gamma. The protocol:
as §3, §4

Assay [2] addresses T1, recombinant MAGEA3 protein. The assay can be described thus: ELISA, recombinant MAGEA3 coated to plastic, serial dilutions of antibody, OD 450 nm. On the procedure: His-tagged MAGEA3 expressed in bacteria was column-purified and used to coat 96 well microplates (Costar, USA). Plates were washed with PBS-T and blocked 1 h at room temperature with PBS containing 2% BSA (Sigma, Buchs, Switzerland). Patient sera, B cell conditioned medium, or recombinant antibody preparations were incubated for 2 h at room temperature. Binding of human IgG to MAGEA3 was determined using a horseradish peroxidase conjugated goat anti human Fc-gamma-specific antibody (Jackson ImmunoResearch, Europe Ltd., Cambridgeshire, UK) followed by measurement of the HRP activity using a TMB substrate solution (TMB, Sigma, Buchs, Switzerland).
as §1
The source holds these as a separate data set.

The next assay concerns the target T8, MAGEA3 peptide No 10.
T8 construct: member of the group m18; also called 20mer peptide, amino acids 91-110 of MAGEA3
T8 peptide: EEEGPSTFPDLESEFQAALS
The assay can be described thus: ELISA on plates coated with overlapping 20mer MAGEA3 peptides; antibody at 1 µg/ml; HRP goat anti-human IgG Fc-gamma. The protocol:
as §3, §4

T6 sequence (P43360 whole entry): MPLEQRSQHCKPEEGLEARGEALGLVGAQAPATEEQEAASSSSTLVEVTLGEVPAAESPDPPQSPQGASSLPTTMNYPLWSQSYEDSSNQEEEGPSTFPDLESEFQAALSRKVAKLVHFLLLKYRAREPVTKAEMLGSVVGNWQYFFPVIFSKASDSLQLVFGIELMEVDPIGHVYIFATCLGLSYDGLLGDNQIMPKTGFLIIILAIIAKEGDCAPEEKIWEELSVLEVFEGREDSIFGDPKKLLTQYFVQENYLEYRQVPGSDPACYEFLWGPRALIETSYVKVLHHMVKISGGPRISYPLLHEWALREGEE
T4 sequence (P43363 whole entry): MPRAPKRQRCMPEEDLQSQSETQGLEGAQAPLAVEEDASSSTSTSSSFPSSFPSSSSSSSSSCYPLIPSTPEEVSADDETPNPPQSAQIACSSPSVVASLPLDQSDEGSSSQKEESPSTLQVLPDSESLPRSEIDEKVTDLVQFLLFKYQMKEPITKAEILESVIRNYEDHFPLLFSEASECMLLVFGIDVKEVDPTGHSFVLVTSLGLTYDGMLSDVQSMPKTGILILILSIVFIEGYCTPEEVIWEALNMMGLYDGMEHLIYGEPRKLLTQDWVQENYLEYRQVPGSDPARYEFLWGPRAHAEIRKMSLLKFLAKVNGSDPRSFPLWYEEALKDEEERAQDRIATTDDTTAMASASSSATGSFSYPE
T1 sequence (P43357 whole entry): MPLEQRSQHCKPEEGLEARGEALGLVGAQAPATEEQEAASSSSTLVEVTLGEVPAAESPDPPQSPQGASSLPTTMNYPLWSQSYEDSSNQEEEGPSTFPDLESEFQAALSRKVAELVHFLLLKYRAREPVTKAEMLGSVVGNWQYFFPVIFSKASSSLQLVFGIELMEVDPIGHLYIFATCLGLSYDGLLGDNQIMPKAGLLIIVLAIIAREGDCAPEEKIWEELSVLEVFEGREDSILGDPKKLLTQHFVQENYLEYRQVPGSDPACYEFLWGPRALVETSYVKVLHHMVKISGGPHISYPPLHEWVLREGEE

B1: 26C9 (antibody, V domains shown)
VH: QVQLVQSGAAVKKPGSSVKVSCTASGGTFGTSGITWVRQAPGQGLEWVGRVTPILGITRYAQRFQGRVTITADTSTSTAYMELSRLRSDDTALYYCARAPEMTINSDWGQGTLVTVSS
VL: QSALTQPASVSGSPGQSITISCTGTRSDVGGHNYVSWYQQDPDKAPKLIIYEVSKRPSGVSNRFSGSKSGNTASLTISGLQAEDEADYYCSSYTGTTILEVFGTGTTVTVL
On to B1, for which the EC50 in assay [1] is 0.523 nM.

B2: 2G4 (antibody, V domains shown)
VH: QVQLVQSGAAVKKPGSSVKVSCTASGGTFGTSGITWVRQAPGQGLEWVGRITPILGITRYGQRFQGRVTITADKSTSTAYMELSRLRSDDTALYYCARAPEMTINSDWGQGTLVTVSS
VL: QSALTQPASVSGSPGQSITISCTGTRSDVGGHNYVSWYQHDPDKAPKLIIYEVSKRPSGISNRFSGSKSGNTASLTISGLQAEDEADYYCSSYTGSTILEVFGTGTTVTVL
B2: the binding result with recombinant MAGEA4, in the assay with recombinant MAGEA1 and in the assay with recombinant MAGEA10 was “no binding” each time. Besides, the EC50 in [1] was 7.79 nM.

B3: 20C10 (antibody, V domains shown)
VH: QLQLQESGPGLVKPSETLSLTCTVSGDSISASTDSWGWIRQSPGKGLEWIGVTSYSGRPYYNPSLKRRVTISVDTSKNHFSLKLTSVTAADRALYYCARRPSLIWAFDIWGQGTMVTVSS
VL: QSALTQPASVSGSPEQSITISCTGTSSAVGNYNLVSWYQHHPGKAPLLIIYDVNERPSGVSHRFSGSRSGNTASLTISGLLAEDEADYFCCSYGGTSSLHYVFGTGTRVTVL
B3: in [1], the EC50 came to 37.3 nM.

B4: 9A5 (antibody, V domains shown)
VH: EVQLVASGGVMVKPGGSLRLSCAASGFSFKNAWMTWVRQAPGMGLEWVGRITSKTDGETTDYAAPVKGRFTISRDDSKNILYLQMNSLKTEDTAVYYCATRTTVCYVCWGQGTLVTVSS
VL: DIVLTQSPDSLAVSQGERATINCKSSQSLLYSSNNKNYLAWFQQKPGQPPKLLIYWASTRESGVPDRFSGSGSGTDFTLTISSLQAEDVAVYYCQQYYTIGWTFGPGTKVEIK
B4: the binding result with recombinant MAGEA4 is recorded as “no binding”; with MAGEA3 peptide No 5, “binds”; in the assay with recombinant MAGEA1 it was “no binding”; with recombinant MAGEA10 it was “no binding”. The EC50 in assay [1] came to 0.259 nM.

B5: 54B4 (antibody, V domains shown)
VH: EVQLVESGGGLVPPGGSLRLSCAASGFTFTTYGLTWVRQAPGKGLEWISYITSSGTIIHYADSVKGRFTISRDNAKNSLYLQMNSLRAEDTAVYYCARGRRGTVVRGVMLDQWGQGTLVTVSS
VL: DIQMTQSPSTLSASIGDRVTITCRASQSISRWLAWYQQKPGQAPKLLIYEASSLESGVPSRFSGSGSGTEFTLTISSLQPDDFAIYYCQQYSSYSLTFGGGTKVEIK
Take B5: the binding result with MAGEA6 is recorded as “binds”; with recombinant MAGEA4 it was “no binding”; with MAGEA3 peptide No 22, “binds”. Besides, the EC50 in assay [2] was found to be 0.029 nM.

B6: 43B10 (antibody, V domains shown)
VH: EVQLVESGGGLVPPGGSLRLSCAASGFTFTTYGLNWVRLAPGKGLEWISYITSSGTIIHYADSVKGRFTISRDNAKNSLYLQMNSLRAEDTAVYYCARGRRGTVVRGVMLDQWGQGTLVTVSS
VL: DIQMTQSPSTLSASIGDRVTIACRASQSISRWLAWYQQKPGQAPKLLIYEASSLESGVPSRFSGSGSGTEFTLTISSLQPDDFATYYCQQYSSYSLAFGGGTKVEIK
As for B6, in the assay with MAGEA3 peptide No 22, the binding result is reported as “binds”. In addition, the EC50 in [2] is 0.109 nM.

B7: 31H10 (antibody, V domains shown)
VH: QVQLVESGGGVVQPGGSLRLSCAASDFTFSDHGMHWVRQAPGKGLQWVSFISHHGTNKYYIDSVKGRFIISRDNSKNTLYLQMNSLRTEDTAVYYCATVIGYFFGYGFDVWGQGTTVIVSS
VL: EIVMTQSPATLSVSPGEEINLACRASHSISGNLAWYQQKPGQGPRLLIYSASTRATGISARFSGSGSGTEFTLTISSLESEDFAVYFCQQYNNWPLTFGGGTKVEIK
B7: the values for the binding result in the assay with MAGEA6, with recombinant MAGEA4 and in the assay with MAGEA3 peptide No 10 were “binds”, “no binding” and “binds”, respectively. In addition, the EC50 in [1] was found to be 0.0192 nM.

B8: 4D6 (antibody, V domains shown)
VH: QVQLVESGGGVVQPGRSLRLSCAASGFSFSDYAMHWVRQAPGKGLEWVAVISYDGTKKYYADSVEGRLTISRDNSQNTLSLQMSGLRVEDKGVYYCARDGCDSARCSYGMDVWGQGTTVTVSS
VL: EIVMTQSPSSLSASVGDRVTITCRASQDIRNDLGWYQQKPGKAPKLLIYGASTLQSGVPSRFSGSGSGTDFTLTISSLQPEDFATYYCLQDYSYRWTFGQGTKVEIK
Turning to B8, the binding result in [2] is “binds”.

B9: 94G11 (antibody, V domains shown)
VH: QVLLQESGPGLVKPSQILSLTCTVSGGSNRSVSYYWSWIRQPAGQGLEWIGRIYPSGSTHYNPSLKSRVTISVDTSKNQFSLKLSSLTAADTAMYFCAWGGYDSLGGRRLRHFDYWGQGALVTVSS
VL: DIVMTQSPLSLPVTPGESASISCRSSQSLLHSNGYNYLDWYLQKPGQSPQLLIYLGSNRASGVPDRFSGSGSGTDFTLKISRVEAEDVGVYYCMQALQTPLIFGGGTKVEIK
For B9, the binding result with MAGEA6 is recorded as “binds”; with recombinant MAGEA4 it was “no binding”; in the assay with recombinant MAGEA1, “no binding”; in the assay with recombinant MAGEA10, “no binding”. The EC50 in assay [2] worked out at 0.129 nM.
